Experimental data as given in paper PMC9835603, “A conserved SH3-like fold in diverse putative proteins tetramerizes into an oxidoreductase providing an antimicrobial resistance phenotype” (Philosophical Transactions of the Royal Society B: …, 2023).
“And” between values parts separate entries of the source, which are not always exact repeats. Identical values can stand only once. Like-named read-outs stand apart in the source and are kept apart here.

Tests used:
DfrB-H5 = target: T1, DfrB-H5 (Methylobacterium pseudosasicola, UniProt A0A1I4V6W3); test: dihydrofolate reductase activity assay at […] nm with purified enzyme; Ki from IC50 by Cheng-Prusoff; type: biochemical
T1 construct: gene SAMN05192568_10896; full-length 365-residue protein, N-terminal His6 tag

[1] = target: His6-DfrB1 (type B dihydrofolate reductase DfrB1); test: SEC-MALS; SEC-MALLS; Superdex 200 10/300 GL for DfrB-H5, Superdex 75 10/300 GL for DfrB1, 0.4 ml/min
[2] = target: His6-DfrB1 (type B dihydrofolate reductase DfrB1); test: negative-stain electron microscopy; purified protein from a single gel filtration peak, 40 ng/ul, uranyl formate stain, two-dimensional classification
[3] = system: NC(=O)C1=CN([C@@H]2O[C@H](COP(=O)(O)OP(=O)(O)OC[C@H]3O[C@@H](n4cnc5c(N)ncnc54)[C@H](OP(=O)(O)O)[C@@H]3O)[C@@H](O)[C@H]2O)C=CC1; test: steady-state kinetics (KM) with purified enzyme; type: biochemical, Escherichia coli; details: varied: cofactor
[4] = target: DfrB-H5 (distant DfrB homologue from Methylobacterium pseudosasicola) (Methylobacterium pseudosasicola); test: negative-stain electron microscopy; purified protein from a single gel filtration peak, 40 ng/ul, uranyl formate stain, two-dimensional classification
[5] = target: DfrB-H5 (distant DfrB homologue from Methylobacterium pseudosasicola) (Methylobacterium pseudosasicola); test: as above; remark: listed apart in the source

O=C(O)c1ccc2[nH]c(-c3ccc(OCCCCCOc4ccc(-c5nc6cc(C(=O)O)ccc6[nH]5)cc4)cc3)nc2c1 [compound 1, 2,2′-[1,5-pentanediylbis(4-oxyphenylene)]-bis-1H-benzimidazole-5-carboxylic acid]
Ki (DfrB-H5; read-out: 1 / Ki): 12 ± 6 µM

CC1(C)Nc2nc(N)[nH]c(=O)c2N=C1C(=O)NCCN1CCC(SC[C@H]2O[C@@H](n3cnc4c(N)ncnc43)[C@H](O)[C@@H]2O)CC1 [compound 2, 2-amino-N-(2-(4-((((2S,3S,4R,5R)-5-(6-amino-9H-purin-9-yl)-3,4-dihydroxytetrahydrofuran-2-yl)methyl)thio)piperidin-1-yl)ethyl)-7,7-dimethyl-4-oxo-3,4,7,8-tetrahydropteridine-6-carboxamide]
Ki (DfrB-H5; read-out: 2 / Ki): 30 ± 10 µM

His6-DfrB1 (type B dihydrofolate reductase DfrB1) (enzyme)
stoichiometry N [1]: 4 | stoichiometry N [2]: 4

DfrB1 (Escherichia coli; Y69L)
Km [3]: 170 ± 20 µM

DfrB-H5 (distant DfrB homologue from Methylobacterium pseudosasicola) (enzyme)
stoichiometry N [4]: 2 and 3 | stoichiometry N [5]: 4
